Data reported in publication PMC8402755.

Biological target: HIV-1 RT (HIV-1, UniProt P03366;P03366 600-1159;600-1039)
Assay: off-rate (dissociation with trap); dissociates much more slowly than from dsDNA N1
Conditions: protein: recombinant; copies: 1;1; label: 5'-32P on the 33 nt DNA primer; 33 nt DNA primer on 50 nt RNA template; template 5' overhang 15 nt, 3' overhang 2 nt

B1: D33-R50 RNA/DNA hybrid primer-template (DNA:RNA)
DNA: TCCCCGGGTACCGAGCTCGAATTCGCCCTATAG
RNA: UUGUAAUACGACUCACUAUAGGGCGAAUUCGAGCUCGGUACCCGGGGAUC
  binding result: binds
